In test [1] the target is Normal MUC1 on non-transformed MCF-10A cells and on normal tissue (human) (UniProt P15941). The test can be described thus: flow cytometry, MCF10a cells.
For the next test, the target named is BSA (UniProt P02769). The test can be described thus: ELISA on coated BSA, antibody 0.01 mg/ml, mean of 3. (ELISA stands for enzyme-linked immunosorbent assay.)
In test [2] the target is SEQ ID NO: 346 glycopeptide with Tn-antigen at Thr4, Thr9 and Thr16. The experiment in a line: ELISA on coated glycopeptide, antibody 0.01 mg/ml, mean of 3.
Test [3] addresses SEQ ID NO: 346 glycopeptide with TF-antigen at Thr16. The description is as above.

Chain of BSA (P02769 25-607 limits assumed): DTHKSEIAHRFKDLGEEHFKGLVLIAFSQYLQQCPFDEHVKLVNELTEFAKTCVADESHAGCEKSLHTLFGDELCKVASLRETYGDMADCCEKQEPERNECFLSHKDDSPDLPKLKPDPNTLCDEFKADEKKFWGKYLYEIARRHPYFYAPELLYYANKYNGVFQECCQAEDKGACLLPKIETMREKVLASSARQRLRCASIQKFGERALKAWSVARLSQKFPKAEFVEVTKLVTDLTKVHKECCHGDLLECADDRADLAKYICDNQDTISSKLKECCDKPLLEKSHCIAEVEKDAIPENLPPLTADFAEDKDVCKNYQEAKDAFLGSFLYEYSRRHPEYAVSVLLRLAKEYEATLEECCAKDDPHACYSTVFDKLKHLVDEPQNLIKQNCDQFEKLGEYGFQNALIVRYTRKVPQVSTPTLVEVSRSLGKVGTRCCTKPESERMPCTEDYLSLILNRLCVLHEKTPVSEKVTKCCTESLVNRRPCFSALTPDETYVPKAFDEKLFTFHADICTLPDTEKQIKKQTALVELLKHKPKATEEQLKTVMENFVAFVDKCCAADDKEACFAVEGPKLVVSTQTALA

B1: M3 (antibody, human IgG1, lambda, V domains shown)
VH: QLQLQESGPGLVKPSETLSLTCTVSGGSISSSSYYWGWIRQPPGKGLEWIGSIYYSGSTHYNPSLKSRVTISVDTSKNQFSLKLRSVTAADTAVYYCARGVVEVRGNHYYYYYMDVWGKGTTVTVSS
VL: QSVLTQPPSVSGAPGQRVTISCTGSSSNIGAGYDVHWYQQLPGTAPKLLIYGNSYRPSGVPDRFSGSKSGTSASLAITGLQAEDEADYYCQSYDSSLSGSGVFGGGTKLTVLG
In test [1], B1 came in with a percentage of APC+ stained cells of 3.14%. Further, the ELISA absorbance at 450 nm with BSA is 0.1 absorbance.

B2: M7 (antibody, human IgG1, kappa, V domains shown)
VH: EVQLVESGGGLVQPGGSLRLSCAASGFTVSSNYMSWVRQAPGKGLEWVSVIYSGGSTYYADSVKGRFTISRDNSKNTLYLQMNSLRAEDTAVYYCARGSTNTYYYDSSGHPWGQGTMVTVSS
VL: DIVMTQSPLSLPATPGEPASISCRSSQSLLHSNGYTYLDWYLQKPGQSPQVLIYLASNRASGVPDRFSGSGSGTNFTLKISRVEAEDVGLFYCMQALQTPQTFGQGTKLEIKR
Molecule B2 came in with a percentage of APC+ stained cells in test [1] of 0.95%. For the same molecule, in the test with BSA, the ELISA absorbance at 450 nm turned out to be 0.1 absorbance.

B3: M20 (antibody, human IgG1, kappa, V domains shown)
VH: EVQLVESGGGLVQPGGSLRLSCAASGFTFSSYWMHWVRQAPGKGLVWVSHINSDGSSTSYADSVKGRFTISRDNAKNTLYLQMNSLRAEDTAVYYCARELADWGQGTLVTVSS
VL: DVVMTQSPLSLPVTLGQPASISCRSSQSLVYSDGNTYLNWFQQRPGQSPRRLIYQVSNRDSGVPDRFSGSGSGTDFTLKIGRVEAEDVGVYFCMQGTHWPWTFGQGTKVEIKR
Take B3: the ELISA absorbance at 450 nm (in test [2]; in test [3]; in the test with BSA) was 0.1 absorbance in each case. This molecule also registered a percentage of APC+ stained cells in test [1] of 4.45%.

B4: M22 (antibody, human IgG1, kappa, V domains shown)
VH: EVQLVESGGGLVQPGGSLRLSCAASGFTVSSNYMSWVRQAPGKGLEWVSVIYSGGTTYYADSVKGRFTISRHNSKNTLYLQMNSLRAEDTAVYYCARDHDPDYGGYYMDVWGKGTTVTVSS
VL: B3 VL
For B4, the ELISA absorbance at 450 nm (in test [2]; in test [3]; in the test with BSA) was 0.1 absorbance in each case. Further, the percentage of APC+ stained cells in test [1] was 2.17%.

B5: M21 (antibody, human IgG1, kappa, V domains shown)
VH: EVQLVESGGGLVQPGGSLRLSCAASGFTVSSNYMSWVRQAPGKGLEWVSVIYSGGSTYYADSVKGRFTISRDNSKNTLYLQMNSLRAEDTAVYYCARDQEHYFDGSGYYVDYWGQGTLVTVSS
VL: B3 VL
Consider B5, for which the ELISA absorbance at 450 nm (in test [2]; in test [3]; with BSA) was 0.1 absorbance each time. The percentage of APC+ stained cells in test [1] came out at 2.67%.

Values taken from patent publication US20160145343A1.
